Target: T1, PcrV (130–263) (Pseudomonas aeruginosa, UniProt G3XD49)
T1 construct: PcrV, type III secretion system needle-tip protein of Pseudomonas aeruginosa, residues 130Ala-263Asn; also called recombinant PcrV (130–263); partial PcrV (130–263); source: E. coli, purified (Profinity eXact Fusion-Tag system, Superdex75)
Experiment: crystal structure; h1F3 Fab and PcrV (130-263) mixed at a molar ratio of 1:2 in TBS with 0.5 mM TCEP at 4°C overnight, equimolar complex separated by Superdex200; crystals by sitting drop in 0.1 M acetate-Na pH 5.6, 24% PEG3350, 0.125 M CaCl2 at 20°C
Conditions: both partners purified

B1: h1F3 Fab (Fab, V domains shown)
VH: QVQLVQSGAEVKKPGASVKVSCKASGYSFTSYWMHWVRQAPGQGLEWMGEINPSNGRTNYNEKFNTRVTMTRDTSTSTVYMELSSLRSEDTAVYYCVLYGNYVVYYTMDYWGQGTTVTVSS
VL: DIQLTQSPSFLSASVGDRVTITCSASTSVSYMEWYQQKPGKAPKLLIYTTSKLASGVPSRFSGSGSGTEFTLTISSLQPEDFATYYCHQWRNYPFTFGQGTKLEIK
notes: Fab part of the heavy chain of h1F3 (humanized from mouse m1F3 by CDR grafting with H93 and H94 back-mutation, human IgG4Pro format); light chain of h1F3 (has the mouse residue Ala at L128); also called Fab fragment of h1F3; pre-optimized COT-143 (Fab); source: papain digestion of h1F3, purified (HiTrap Protein A flow-through, Mono S, Superdex200)
  binding result: binds

Source: article PMC11459929, “Novel humanized anti-PcrV monoclonal antibody COT-143 protects mice from lethal Pseudomonas aeruginosa infection via inhibition of toxin translocation by the type III secretion system” (Antimicrobial Agents and Chemotherapy, 2024)
